This is an account of results in US10851152B2, “Polymerized peptide and gel having collagen-like structure” (WASEDA UNIVERSITY, priority 2015, dated 2020).

Common to all, as to type: physicochemical
A short description of series [1]: Remaining thiol group (Ellman's reagent) in oxidative polymerization reaction. The following applies: 10% DMSO, peptide 1% (w/v). The protocol: Degassed water was used to prepare a peptide solution having a concentration of 1.11% (w/v), and the solution was then put into a PCR tube. After heating this solution at 80° C. for 5 min, it was then left to sand still at 4° C. overnight. By adding DMSO to this solution, there was prepared a peptide solution having a final concentration of 10% DMSO, peptide 1% (w/v). The PCR tube was then filled with a mineral oil in a way such that the mineral oil covered the surface of the solution. In every measurement, the mineral oil was eliminated from the peptide solution to prepare a peptide solution for oxidation monitoring. Ellman's reagent was prepared in a way such that 9 mg/ml of DTNB was present in 50 mM of a phosphate buffer solution (pH 8.4). 33 mM phosphate buffer solution (pH 8.4) and Ellman's reagent 1.5 mg/ml were left to stand for […], then a light absorbance was then measured after a solution with a final concentration of peptide 0.167 mg/ml. Recorded were changes in absorbance with time, with a moment when DMSO was added being a starting point (0 hour). Since the Ellman's reagent generates 5-mercapto-2-nitrobenzoate (λ max=412 nm, ε=1.55×10^4) depending on the amount of thiol groups (referred to as “SH groups” hereunder) in the peptide, measured was a absorbance at 412 nm. After the measurement, optical path length was compensated by measuring absorbance at 997 nm and 900 nm.

Series [2] in a line: Hydrogel formation judged by holding of a stainless ball. Set-up: key to gel formation, Time (hour) 9 / gel formation, Time (hour) 12 / gel formation, Time (hour) 15 / gel formation, Time (hour) 24 / gel formation, Time (hour) 32 / gel formation, Time (hour) 74 / gel formation, Peptide concentration 0.1% (w/v) / gel formation, Peptide concentration 0.2% (w/v) / gel formation, Peptide concentration 0.3% (w/v) / gel formation, Peptide concentration 0.5% (w/v) / gel formation, Peptide concentration 0.7% (w/v) / gel formation, Peptide concentration 1.0% (w/v): ◯: Gelated; X: Failed to gelate. The following applies: for gel-forming capability / gel formation, Time (hour) 9 / gel formation, Time (hour) 12 / gel formation, Time (hour) 15 / gel formation, Time (hour) 24 / gel formation, Time (hour) 32 / gel formation, Time (hour) 74: 1% (w/v) peptide; for gel-forming capability: 10% DMSO, up to three days; for gel formation, Time (hour) 9: 9 hour; for gel formation, Time (hour) 12: 12 hour; for gel formation, Time (hour) 15: 15 hour; for gel formation, Time (hour) 24: 24 hour; for gel formation, Time (hour) 32: 32 hour; for gel formation, Time (hour) 74: 74 hour. The protocol: Degassed water was used to prepare a peptide solution having a concentration of 1.11% (w/v) or 1.66% (w/v), and the solution was then put into a PCR tube. After heating this solution at 80° C. for 5 min using a polymerase chain reaction (PCR) machine (TaKaRa PCR Thermal Cycler, TAKARA BIO INC.), the solution was then left to stand at 4° C. overnight. By adding DMSO and water to this solution, there was prepared a peptide solution having a concentration of 10% DMSO, 0.1 to 1.5% (w/v). The PCR tube was then filled with a mineral oil in a way such that the mineral oil covered the liquid surface, followed by allowing the solution to stand at room temperature for a given period of time to achieve a gel. Then, gel formation was determined by looking at whether a stainless ball could be held by the gel.

Series [3] in a line: Hydrogel stability to reduction treatment (DTT) or water with pipetting. The following applies: water added instead of reducing solution; pipetting about 90 times/min. The protocol: There, verification was made on whether gel caused a collapse by breaking the disulfide cross-linking by a reduction treatment. A reducing solution of 100 μl (100 mM DTT, 50 mM phosphate buffer solution (pH 8.4)) or water was added to the hydrogel (30 μl) prepared. […] Then, pipetting procedure was respectively performed at a frequency of about 90 times/min and a volume of 100 μl/each time, using a yellow tip (up to 200 μl).

Where [4] appears, read: oxidizing conditions: room temperature, three days.

On to “YCC(POG)6PRG(POG)5CCY (YCCPPGPPGPPGPPGPPGPPGPRGPPGPPGPPGPPGPPGCCY; not fully specified; hydroxyproline; MOD_RES (5)..(5) 4-Hydroxyproline; MOD_RES (8)..(8) 4-Hydroxyproline; MOD_RES (11)..(11) 4-Hydroxyproline; MOD_RES (14)..(14) 4-Hydroxyproline; MOD_RES (17)..(17) 4-Hydroxyproline; MOD_RES (20)..(20) 4-Hydroxyproline; MOD_RES (26)..(26) 4-Hydroxyproline; MOD_RES (29)..(29) 4-Hydroxyproline; MOD_RES (32)..(32) 4-Hydroxyproline; MOD_RES (35)..(35) 4-Hydroxyproline; MOD_RES (38)..(38) 4-Hydroxyprolin) [YCC2]”, for which the “time in which peptide turned into a gel” value in series [1] is 74 h. In addition, the gel-forming capability result in series [2] (room temperature) is “capable of turning into gels”. In series [2], the “gel formation, Time (hour) 9” value is “X”; the “gel formation, Time (hour) 12” value is “X”; the “gel formation, Time (hour) 15” value is recorded as “X”; the “gel formation, Time (hour) 24” value is given as “X”. In series [2], the “gel formation, Time (hour) 32” value is given as “X” and the “gel formation, Time (hour) 74” value is recorded as “◯”. Also, in series [2] (setting [4]), the “gel formation, Peptide concentration 0.3% (w/v)” value is “X”; the “gel formation, Peptide concentration 0.5% (w/v)” value is given as “X”; the “gel formation, Peptide concentration 0.7% (w/v)” value is “X”; the “gel formation, Peptide concentration 1.0% (w/v)” value was “◯”. The “gel collapse on adding water” value in series [3] is reported as “gel collapse was observed”.
With CCCC(POG)6PRG(POG)5CCGC [CCCC2], the “time in which peptide turned into a gel” value in series [1] worked out at 12 h. In addition, the gel-forming capability result in series [2] (room temperature) is “capable of turning into gels”. For the same substance, in series [2], the “gel formation, Time (hour) 9” value is “X”; the “gel formation, Time (hour) 12” value is reported as “◯”; the “gel formation, Time (hour) 15” value is given as “◯”; the “gel formation, Time (hour) 24” value is “◯”. Further, in series [2], the “gel formation, Time (hour) 32” value is recorded as “◯” and the “gel formation, Time (hour) 74” value is reported as “◯”. In addition, in series [2] (oxidizing conditions: room temperature, three days, 0.1% (w/v)), the “gel formation, Peptide concentration 0.1% (w/v)” value was “X”. Further, the “gel formation, Peptide concentration 0.2% (w/v)” value in series [2] (oxidizing conditions: room temperature, three days, 0.2% (w/v)) is given as “X”. In series [2] (setting [4]), the “gel formation, Peptide concentration 0.3% (w/v)” value was “◯”; the “gel formation, Peptide concentration 0.5% (w/v)” value is “◯”; the “gel formation, Peptide concentration 0.7% (w/v)” value is “◯”; the “gel formation, Peptide concentration 1.0% (w/v)” value is recorded as “◯”. The “concentration at which peptide still turned into a gel” value in series [2] (room temperature, three days) is given as 0.3 % (w/v). In addition, the “gel collapse on adding water” value in series [3] is recorded as “gel collapse was not observed”.
Consider “(POG)6PRG(POG)5CC (PPGPPGPPGPPGPPGPPGPRGPPGPPGPPGPPGPPGCC; not fully specified; hydroxyproline; MOD_RES (2)..(2) 4-Hydroxyproline; MOD_RES (5)..(5) 4-Hydroxyproline; MOD_RES (8)..(8) 4-Hydroxyproline; MOD_RES (11)..(11) 4-Hydroxyproline; MOD_RES (14)..(14) 4-Hydroxyproline; MOD_RES (17)..(17) 4-Hydroxyproline; MOD_RES (23)..(23) 4-Hydroxyproline; MOD_RES (26)..(26) 4-Hydroxyproline; MOD_RES (29)..(29) 4-Hydroxyproline; MOD_RES (32)..(32) 4-Hydroxyproline; MOD_RES (35)..(35) 4-Hydroxyproline) [CC1]”, for which the “ratio of SH amount” value in series [1] (SH amount at 0 hour being 100%, 74 hours) is reported as “approximately 0%”. Besides, the gel-forming capability result in series [2] (room temperature) is on record as “did not turn into a gel”.
For the substance “CCC(POG)6PRG(POG)5CCC (CCCPPGPPGPPGPPGPPGPPGPRGPPGPPGPPGPPGPPGCCC; not fully specified; hydroxyproline; MOD_RES (5)..(5) 4-Hydroxyproline; MOD_RES (8)..(8) 4-Hydroxyproline; MOD_RES (11)..(11) 4-Hydroxyproline; MOD_RES (14)..(14) 4-Hydroxyproline; MOD_RES (17)..(17) 4-Hydroxyproline; MOD_RES (20)..(20) 4-Hydroxyproline; MOD_RES (26)..(26) 4-Hydroxyproline; MOD_RES (29)..(29) 4-Hydroxyproline; MOD_RES (32)..(32) 4-Hydroxyproline; MOD_RES (35)..(35) 4-Hydroxyproline; MOD_RES (38)..(38) 4-Hydroxyprolin) [CCC2]”, the “time in which peptide turned into a gel” value in series [1] came to 24 h. For the same substance, in series [2] (room temperature), the gel-forming capability result is “capable of turning into gels”. In series [2], the “gel formation, Time (hour) 9” value was “X”; the “gel formation, Time (hour) 12” value is on record as “X”; the “gel formation, Time (hour) 15” value was “X”; the “gel formation, Time (hour) 24” value is reported as “◯”. Besides, in series [2], the “gel formation, Time (hour) 32” value is given as “◯” and the “gel formation, Time (hour) 74” value was “◯”. Besides, in series [2] (setting [4]), the “gel formation, Peptide concentration 0.3% (w/v)” value is given as “X”; the “gel formation, Peptide concentration 0.5% (w/v)” value is listed as “◯”; the “gel formation, Peptide concentration 0.7% (w/v)” value is reported as “◯”; the “gel formation, Peptide concentration 1.0% (w/v)” value was “◯”. Moreover, the “gel collapse on adding water” value in series [3] is given as “gel collapse was not observed”.
